We go through two molecules from PMC2811023 (Nucleic Acids Research, 2009).

First the molecules themselves.
B1: Staphylococcus aureus GatB (subunit B of the heterotrimeric tRNA-dependent amidotransferase GatCAB) (enzyme)
chain: MHFETVIGLEVHVELKTDSKMFSPSPAHFGAEPNSNTNVIDLAYPGVLPVVNKRAVDWAMRAAMALNMEIATESKFDRKNYFYPDNPKAYQISQFDQPIGENGYIDIEVDGETKRIGITRLHMEEDAGKSTHKGEYSLVDLNRQGTPLIEIVSEPDIRSPKEAYAYLEKLRSIIQYTGVSDVKMEEGSLRCDANISLRPYGQEKFGTKAELKNLNSFNYVRKGLEYEEKRQEEELLNGGEIGQETRRFDESTGKTILMRVKEGSDDYRYFPEPDIVPLYIDDAWKERVRQTIPELPDERKAKYVNELGLPAYDAHVLTLTKEMSDFFESTIEHGADVKLTSNWLMGGVNEYLNKNQVELLDTKLTPENLAGMIKLIEDGTMSSKIAKKVFPELAAKGGNAKQIMEDNGLVQISDEATLLKFVNEALDNNEQSVEDYKNGKGKAMGFLVGQIMKASKGQANPQLVNQLLKQELDKR

Test [1] concerns the target T1, Staphylococcus aureus GatA (subunit A of the heterotrimeric tRNA-dependent amidotransferase GatCAB) (Staphylococcus aureus, UniProt P63488 1-485).
T1 sequence: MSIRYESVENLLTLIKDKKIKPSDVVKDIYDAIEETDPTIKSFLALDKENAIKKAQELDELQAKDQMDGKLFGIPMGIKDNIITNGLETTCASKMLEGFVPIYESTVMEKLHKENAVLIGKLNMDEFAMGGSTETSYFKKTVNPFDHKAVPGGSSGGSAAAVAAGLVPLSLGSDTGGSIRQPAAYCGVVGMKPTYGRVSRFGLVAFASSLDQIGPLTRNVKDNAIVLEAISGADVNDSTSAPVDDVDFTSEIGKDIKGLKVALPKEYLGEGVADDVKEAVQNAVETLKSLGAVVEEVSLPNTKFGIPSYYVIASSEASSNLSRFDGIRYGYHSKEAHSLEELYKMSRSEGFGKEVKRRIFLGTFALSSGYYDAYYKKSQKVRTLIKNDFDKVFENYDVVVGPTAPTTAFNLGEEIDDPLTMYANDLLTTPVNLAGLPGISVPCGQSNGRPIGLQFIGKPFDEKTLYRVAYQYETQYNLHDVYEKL
The experiment in a line: crystal structure.

The target of test [2] is B1. Description: crystal structure.

On to B1, for which, in test [1], the binding result is listed as “binds”.

B2: Staphylococcus aureus GatC (subunit C of the heterotrimeric tRNA-dependent amidotransferase GatCAB) (natural protein)
chain: MTKVTREEVEHIANLARLQISPEETEEMANTLESILDFAKQNDSADTEGVEPTYHVLDLQNVLREDKAIKGIPQELALKNAKETEDGQFKVPTIMNEEDA
On to B2, for which the binding result in test [1] and in test [2] was “binds” in each case.
